Laboratory results from the DeepSol protein solubility set.

assay: soluble on expression in E. coli; label from the status in PepcDB or PDB records

Row | Sequence | soluble on expression in E. coli
1 | MATQMRLTDTNLLEVLNSEEYSGVLKEFREQRYSKKAILYTPNTERNLVFLVKSGRVRVYLAYEDKEFTLAILEAGDIFCTHTRAFIQAMEDTTILYTDIRNFQNIVVEFPAFSLNMVKVLGDLLKLLLTIINGLVFKDARLRLAEFLVQAAMDTGLKVPQGIKLELGLNTEEIALMLGTTRQTVSVLLNDFKKMGILERVNQRTLLLKDLQKLKEFSSGV | soluble
2 | MRKSMISFLEKKAKNEKITMVSAYDYHSARILDNSDIDIILVGDSLAMTVLGMQDTLSVTMDEMLIFTKAVSRGAKKSFVLADMPFMSYQSSDRDAILNASRFIKESHANGVKVEGGIEIASKIKLISQSGIPVVAHLGLTPQAVNMLGGYRVQGKDLQSAQKIIDDAKAVQDAGACMLVLECVPVKLAQKISSILEIPTIGIGSGKYCDGQVLVYHDLLGLNKDFKAKFVKHFDKIDPQVGVEKYRDEVKSGIFPSQEHSFDYLDDELLDKLY | not soluble
3 | MSNNNSGSSNQLLVRGAEQALDQMKYEIAQEFGVQLGADATARANGSVGGEITKRLVSLAEQQLGGGVTR | soluble
4 | SAVFSDPQIAMVGETYKEITTRLGTCGCFATGEVSFENQGRSRVMLRNKGILHVYGEQGTGRFLGAEMMGPNAEHLAHLLAWAHQNKMTVSEMLDMPFYHPVIEEGVRTALRDLNAKLHLGPEMIKHCMDCGPGC | not soluble
5 | MDPARECEGKGACELKSNKRFADKIMPHLLNLYGSSAKANDFDMYAPNASFEDPLTHAQGVKQIKSAFYSLPKVFGESKIVEYHIQESETSPGKKEILIDNKQHYKIMGRNIDMISLIKLYVEDGKIVRHEDWWDKKPLRNRDTVSFPLVGRVMEMGRRGLMLATHAMMGFGKDPDSQ | soluble
6 | MGSDKIHHHHHHMRLNELYSGKNAFIFQGVGIKYQKFLTLLDESQRELLKEYCSIVYKKIKLDLWGYLTRSLSGEYDDKFSDWVSIYTIDCVVYNTYIEDGIKPSVLLGYSMGLITALACGKAISFEEGLELLSMSYNYPKYTSRKDEGMGLVTGMTCSDIKKIIDKNELGDYAYIASENNEYCILVSGMKNRVDKLLSIALTEGALSAKDIDSPYAFHSKYALIGIEEYEKLVSRLCVCNLKIPIISSYDQRIIVDSCELKKELVKNVWGEMKWMASVEKAININNYNFFEVSLIDSISRFSRMINSNCKFFTYKSFMKIKNVQVQN | not soluble
7 | MGSDKIHHHHHHMETMFDTLLQLPLFQGLCHEDFTSILDKVKLHFIKHKAGETIIKSGNPCTQLCFLLKGEISIVTNAKENIYTVIEQIEAPYLIEPQSLFGMNTNYASSYVAHTEVHTVCISKAFVLSDLFRYDIFRLNYMNIVSNRAQNLYSRLWDEPTLDLKSKIIRFFLSHCEKPQGEKTFKVKMDDLARCLDDTRLNISKTLNELQDNGLIELHRKEILIPDAQKLL | soluble
8 | GPGSMRGKTKKRKIYKRFSSLPKTETSTLPTVHSHTTCIRVQHVSHHLHAYICTLVSGMSHHRMWPSPITPSRTDATTTTTKTTTKNDTYSPHKKNTNTPHAKGRSYIVNLCHSFYSPTGDETVIWVTNVVRSCAAKYNYIPHILHSHETLVKRRCNENAANEKCLIRC | not soluble
9 | MGHHHHHHSHMKPSGEDQAALAAGPWEECFQAAVQLALRAGQIIRKALTEEKRVSTKTSAADLVTETDHLVEDLIISELRERFPSHRFIAEEAAASGAKCVLTHSPTWIIDPIDGTCNFVHRFPTVAVSIGFAVRQELEFGVIYHCTEERLYTGRRGRGAFCNGQRLRVSGETDLSKALVLTEIGPKRDPATLKLFLSNMERLLHAKAHGVRVIGSSTLALCHLASGAADAYYQFGLHCWDLAAATVIIREAGGIVIDTSGGPLDLMACRVVAASTREMAMLIAQALQTINYGRDDEK | not soluble
10 | MAHHHHHHMLSPTPLLQRYRLFHPCRENIPLHMNPAKSMFPLINSNNLLAKPRSNWQDFSGRKEFDEDHPLPVVASRLNERTTQHKWSHWDQYLNPQITQSVRDLTPTPEYVGMRSGHNMIKMGWMKIGGSWKYSRGYNDRRRVFARGQWQERKMTPRFMLAPRVSPGGPRNRYEGKLVFSRLKLSKLLWAIDTGRLNPNEVITVYHLHEAGVVAEGEIVWPGFVLISSGVSRVPYPIHIELQNASAESIRLIEEAGGSFTGVYMTHDGLYQELHPEEYPVFPEQEFPERKGLEGLATNPAKRGWLVRWYEDEGKYAHPEAGRRYSHYVRPPTERDFPATVGEYEMVKHHQKWHLNQPGTGTLLPWHSYNTADLLKRSAGRV | not soluble
11 | MSLQPVAKTEQPEGGILYDFGKETFGFITLKNLSGKGKIDLYYGESPEEAKDKAYCETLDKLLLEPGQITDLAIRSTSPLHHSDNEYTLENSKAFRYVYITHEPEVQIGEVSMQYEYLPEEYRGNFRCNDEELNCIWEVGAYTMHLTTREFFIDGIKRDRWVWSGDAIQSYLMNYYLFFDSESVKRTIWLLRGKDPVTSHSNTIMDYTFYWFLSVYDYYMYSGDRHFVNQLYPRMQTMMDYVLGRTNKNGMVEGMSGDWVFVDWADGYLDKKGELSFEQVLFCRSLETMALCADLVGDKDGQQKYEKLASALKAKLEPTFWNNQKQAFVHNCVDGRQSDAVTRYANMFSVFFDYLNADKQQAIKQSVLLNDEILKITTPYMRFYELEALCALGEQETVMKEMKAYWGGMLKAGATSFWEKYNPEESGTQHLAMYGRPYGKSLCHAWGASPIYLLGKYYLGVKPTKEGYKEFAVSPVLGGLKWMEGTVPTPNGDIHVYMDNKTIKVKATEGKGYLTIQSRRQPKANMGTVEKVSEGVWRLWIDSPEERIVTYRLEGHHHHHH | soluble
12 | MSLADWQEITGGITAPKGYRAAGITAGLKPSGLPDLALIVSDVEAIASGVFTTSQVKAACVDYCRQRLQAKQSARAILCNAGQANAATGSQGIKDAEESAELLAKELNISPELILLASTGVIGQRIKMDALRNGIPKLIASLTDTGSDAAAGAIITTDLVTKSIALETTIGDRPVRIGGIAKGSGMIHPNMATMLAFVTCDAAVSSHLWQQMLTRAADRSFNSITVDGDTSTNDSLIALANGQSRTPAITEVGAESEKLEAMLTAVCQHLAKAIARDGEGATCLIEVQVTGAHDEQAARQIAKTIAGSSLVKSAIFGRDPNWGRIAAAAGRAGVPFEQENLQIQLGDFLLLDNGQPLPFDRAAASAYLKQAATGAYLQQDTVLISVKVGNGHGTGKAWGCDLSYDYVKINAEYTTEGHHHHHH | soluble
13 | MSLGYWGVMGNCFRRLSLFGQPTQAKYEMLCSSDDLETEELTFFLDMTYKDFGVYQNDIISHQKDTETMKTLLGLLPMYKKTKLRHTVMERCLSNCPNHVKDALCVELMKAEKILQTMDVVFMKTLIGEFSMCTENLNQLLNKFATDQSTLSDVEKINSLIEIDGENSKRLLVELDPILHEETGLYQALPNVVTEAPSEKVKSIRVESEGESV | not soluble
14 | ELQVIQPEKSVSVAAGESATLRCAMTSLIPVGPIMWFRGAGAGRELIYNQKEGHFPRVTTVSELTKRNNLDFSISISNITPADAGTYYCVKFRKGSPDDVEFKSGAGTELSVRAKPSAPVVSG | soluble
15 | GMTSNGQQGKPNLPEKDNLPRELGTQRINSPIARMGMFGAKTTGDTSGYGRLRVYRHVPAAAQRPYSDPSDPRTAYFDEVADALERSLKEIGTPYDTAISRVVVDRGEITFHVQREHLLDVATRLRDDPALRFELCLGVTGVHYPEDEGNELHAVYALRSITHNYEIRLEVSCPDSDPHIPSIVSVYPTNDWHEREAWDFFGIIFDGHPALTR | soluble
16 | MKRAPFLCKQSPDRTLEVVILAGSLAWETSRVWRKDPDREDDVPPMVLGPNELADLSNLTIIRPDTLYVRVLRTGDISEEDLLKIAVKLAHAGVQMARLMSPDGELLENWTGQLERLRQERPSDILPDHFRLDEEALWFDKLTERRDGESDVQPQRICSPLRVTAITCDSHDGSYGRLLEWHTTTGQLRRWAMPMAMLSGNGEELRRILLENGLTNISTRPALRSLLCEYISRSLPGRRVTCVEKTGWHNGVYVLPDEVIGPDGDNVILQGSHYLTGGFAQAGTLAEWQEQVAALCAGNSRLVFAVCCALAAPLLRLTGTGGGGFHLRGESTDGKTTVMKVAASVCGGTDYWHSWRATGNALEGIASRHNDALLPLDELREVDPREAGMIAYMLANGQGKGRARTDGEVRNRRHWTLLLFSTGELSLAEHTERAGERIYAGMDVRMVQIPSDTGQHGAFEQLHGFASGQQFADTLCDRVARFHGTAFRAWLAFLTHDQDASTTLARELLRRYQNALMPDNAGNQVQRIVARFALLAAAGEIATLHGITGWQKGTAYEAVQICLHAWLNERGHIANQEDEGVLAQIKRFITAHQYSRFASWDGPDRPLNMAGFRRVEKDPLTGEEHTLFFILPEGWREICRGFSPARAARLCQEAECLQPGSDGKYQSQVRLPEIGKTRVYRLTSRILSILEHHHHHH | soluble
17 | TGRVKWTLGGNIYLNRNKVDDISGNELLGTSYLAGGGVFSQSIHITKAGYPVGSFYGYVVDGVYQNEAEAKLAPFDTPQATPGSLRFKDISGPDGLPDGKITSDDMTIIGTAEPKFNYGINSELSWKGLTLSMIFTGRVGGDIANLNRYFLDSFTDTNDNIRAEAWEGRWQGEGTSNFYPAVNGSQGSSYFNKRFSTFLLEDGSFFRLKNLTLAYQFSLKKLRWLRSVRVFGTVTNVFTITNYSGYDPEVSITSGAMSPNVDYAAYPSSRTYSMGINLAF | not soluble
18 | MSLDALTTLPIKKHTALLNRFPETRFVTQLAKKRASWIVFGHYLTPAQFEDMDFFTNRFNAILDMWKVGRYEVALMDGELTSEHETILKALELDYARIQDVPDLTKPGLIVLDMDSTAIQIECIDEIAKLAGVGEEVAEVTERAMQGELDFEQSLRLRVSKLKDAPEQILSQVRETLPLMPELPELVATLHAFGWKVAIASGGFTYFSDYLKEQLSLDYAQSNTLEIVSGKLTGQVLGEVVSAQTKADILLTLAQQYDVEIHNTVAVGDGANDLVMMAAAGLGVAYHAKPKVEAKAQTAVRFAGLGGVVCILSAALVAQQKLSWKSKEGHHHHHH | soluble
19 | MSDIESLGEAAGLFEEPEDFLPPPPKPHFAEYQRSHITKESKSDVKDIKLRLVGTSPLWGHLLWNAGIYTANHLDSHPELIKGKTVLELGAAAALPSVICALNGAQMVVSTDYPDPDLMQNIDYNIKSNVPEDFNNVSTEGYIWGNDYSPLLAHIEKIGNNNGKFDLIILSDLVFNHTEHHKLLQTTKDLLAEKGQALVVFSPHRPKLLEKDLEFFELAKNEFHLVPQLIEMVNWKPMFDEDEETIEVRSRVYAYYLTHEK | soluble
20 | LQNKFKKYSKIPTGNGMTGRDVAIKMLQDNGIYDVQVTHTPGQLTDHYNPANKTVNLSEGVYDSNSIMAAAVAAHECGHAVQHARAYAPLTLRSK | not soluble
